This experiment deals with T1, E0 (EGFR-OMCP bispecific fusion protein: cetuximab scFv - (GGGGS)3 linker - OMCP - His8 tag).
T1 construct: also called OMCP-EGFR; OMCP-EGFR scFv
Nature of the experiment: SPR (ProteOn XPR36), human NKG2D amine-coupled to the chip, bispecific as analyte, 1:1 Langmuir fit.

B1: human NKG2D (receptor, UniProt P26718 78-216, looked up)
chain: FLNSLFNQEVQIPLTESYCGPCPKNWICYKNNCYQFFDESKNWYESQASCMSQNASLLKVYSKEDQDLLKLVKSYHWMGLVHIPTNGSWQWEDGSILSPNLLTIIEMQKGDCALYASSFKGYIENCSTPNTYICMQRTV
One may read the Kd as the free concentration of one partner at which half of the binding sites on the other are occupied at equilibrium, for simple one-to-one binding. Turning to B1, the Kd amounted to 0.17 nM.

The record behind these values is patent publication US20260008822A1 (RECOURSE BIOLOGICS, published 2026).
